Experimental data published in article PMC6089211, “Expression and purification of human diacylglycerol kinase α from baculovirus-infected insect cells for structural studies” (PeerJ, 2018).

System: T1, Nc1ncnc2c1ncn2[C@@H]1O[C@H](COP(=O)(O)OP(=O)(O)OP(=O)(O)O)[C@@H](O)[C@H]1O
T1 construct: full-length DGKα (aa 1–735), N-terminal His×6 tag, Sf9-expressed
Assay: Michaelis–Menten kinetics, mixed micelle ADP-Glo assay (Km)
Type: biochemical, Homo sapiens
Conditions: Mg2+, Ca2+ substrate (ATP and DG) binding sites locate in the CD

Sequence of diacylglycerol kinase α (DGKα) (Homo sapiens) (chain, as listed by the source): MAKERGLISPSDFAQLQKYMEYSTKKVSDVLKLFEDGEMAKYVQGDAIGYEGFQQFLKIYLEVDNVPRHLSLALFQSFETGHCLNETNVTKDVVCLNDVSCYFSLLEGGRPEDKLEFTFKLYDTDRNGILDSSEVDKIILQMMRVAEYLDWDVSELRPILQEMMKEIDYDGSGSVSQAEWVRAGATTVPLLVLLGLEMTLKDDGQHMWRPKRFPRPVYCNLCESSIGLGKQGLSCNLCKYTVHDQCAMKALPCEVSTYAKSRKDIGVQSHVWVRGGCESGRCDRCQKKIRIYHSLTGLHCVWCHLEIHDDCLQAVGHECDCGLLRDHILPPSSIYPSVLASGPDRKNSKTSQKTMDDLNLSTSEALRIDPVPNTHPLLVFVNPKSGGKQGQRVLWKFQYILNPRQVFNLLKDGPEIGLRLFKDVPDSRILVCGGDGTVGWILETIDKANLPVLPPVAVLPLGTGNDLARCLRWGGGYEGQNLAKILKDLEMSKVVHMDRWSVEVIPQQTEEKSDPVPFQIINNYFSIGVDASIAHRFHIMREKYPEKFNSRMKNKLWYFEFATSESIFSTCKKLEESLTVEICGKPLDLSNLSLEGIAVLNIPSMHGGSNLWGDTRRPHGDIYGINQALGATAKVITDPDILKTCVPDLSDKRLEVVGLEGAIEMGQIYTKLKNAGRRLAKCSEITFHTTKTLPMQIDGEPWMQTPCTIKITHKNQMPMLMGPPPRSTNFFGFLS

Which Km does the source give for “diacylglycerol kinase α (DGKα) (Homo sapiens)” here?
Its Km is 0.24 ± 0.03 mM.

And the Vmax?
Its Vmax is 2.66 ± 0.15 nmol/min/µg.
